Reference: patent US20200264182A1, “METHOD FOR DETECTING PROSTATE CANCER” (J-OIL MILLS, INC., priority 2017, published 2020)

How the values were obtained:
serum fucosylated PSA = experiment: Sandwich ELISA, anti-PSA antibody and biotin-labeled lectin; format: binding, human
Protocol: The anti-PSA antibody from which sugar chains had been removed was diluted to 5 μg/mL with PBS. 25 μL of this diluted solution was added to each well of an ELISA plate and allowed to stand at 37° C. for 12 hours, and then the additive solution was discarded.
150 μL of PBS containing 0.05% Tween 20 (product name: polyoxyethylene sorbitan monolaurate, from Nacalai Tesque, Inc.) was added to each well, and then the additive solution was discarded. This manipulation was repeated three times in total.
25 μL of 1% BSA/PBS was added to each well and allowed to stand at 37° C. for 1 hour, and then the additive solution was discarded.
150 μL of PBS containing 0.05% Tween 20 was added to each well, and then the additive solution was discarded. This manipulation was repeated three times in total.
To graph a calibration curve, 25 μL of the fucosylated PSA reference standard diluted with 1% BSA/PBS to a concentration of 0 to 200 ng/mL was added to each well and allowed to stand at room temperature for 1 hour, and then the additive solution was discarded. In addition, to detect the fucosylated PSA in the serum of the subject by the lectin, 25 μL of serum of “Healthy 1” and “Prostate cancer 4” 2-fold diluted with PBS was added to each well and allowed to stand at room temperature for 1 hour, and then the additive solution was discarded.
In Reference Example 1, 25 μL of a biotin-labeled PhoSL diluted to 0.1 μg/mL with 0.1% BSA/PBS (pH 7.4) was added to each well and allowed to stand at 4° C. for 30 minutes, and then the additive solution was discarded. In Example 1, 25 μL of a biotin-labeled PhoSL diluted to 0.1 μg/mL with 0.1% BSA/10-fold diluted PBS+glycine-NaOH (pH 9.6) was added to each well and allowed to stand at 4° C. for 30 minutes, and then the additive solution was discarded.
25 μL of a horseradish peroxidase (HRP)-labeled streptavidin solution (from Vector Laboratories, Inc., concentration: 0.4 μg/mL, in 1% BSA/PBS) was added to each well and allowed to stand at room temperature for 30 minutes, and then the additive solution was discarded.
25 μL of chromogenic substrate for HRP (product name: TMB, from Kirkegaard & Perry Laboratories, Inc.) was added to each well and allowed to stand at room temperature for 10 minutes.
25 μL of 1M phosphoric acid was added to terminate the reaction.
Absorbance (Ab) at 450 nm and 630 nm was measured using a plate reader, and a measurement (Ab450-630) was obtained.
A calibration curve was graphed by plotting signals (reaction values, Ab450-630) of the fucosylated PSA reference standard with the biotin-labeled PhoSL. A Signal (Ab450-630) of the biotin-labeled PhoSL corresponding to the fucosylated PSA concentration of 10 ng/mL was defined as 10 U/mL.
The signals of biotin-labeled PhoSL (Ab450-630) for the serum fucosylated PSA in the subject samples A were assigned to the calibration curve to calculate reaction values (unit: U/mL).
The PhoSL reaction values for the subject samples A were measured by the same operation as in Example 1. From the PhoSL reaction values, an average value and a median value were determined. Furthermore, a standard cutoff value (89.7 U/mL) was used to determine a detection rate (positive rate) of the prostate cancer patients, and a false detection rate (false positive rate) of the healthy persons.
Comparative Example 2 in Table 9 indicates results of detecting the serum fucosylated PSA using AAL (AAL reaction values) in the subject samples A. Specifically, in Reference Example 1, AAL reaction values were measured in the same manner as in Reference Example 1 except that the biotin-labeled PhoSL was replaced with a biotin-labeled AAL. A standard cut-off value for the AAL reaction values was 894.8 U/mL. As in Example 2, an average value, a median value, a positive rate and a false positive rate were determined from the AAL reaction values.

[1] = FAC binding constant (Table 5 entry); conditions: Table 5: sugar chain having no fucose; at 25° C.
Protocol: (§1) Details of the FAC method are described in Patent Document 2 filed by some of the present applicants, for example.
(§2) Binding constants (at 25° C.) of PhoSL, SRL, NSL and LSL belonging to the fucose α1→6 specific lectin for various sugar chains are shown in Tables 2 to 5.

[2] = Binding to sugar chains, summary of Tables 2 to 5; conditions: sugar chains No. 015, 201 to 203, and 401 to 418
Protocol: as §1, §2
The AAL and AOL bind to the fucose α1→6 sugar chains (sugar chains No. 015, 201 to 203, and 401 to 418), as well as to the glycolipid-type sugar chain excluding the fucose α1→6 (sugar chains No. 718, 722, 723, 727, 909, 910 and 933). The LCL and PSL bind to the fucose α1→6 sugar chain, as well as to sugar chain excluding the α1→6 fucose (sugar chains No. 003, and 005 to 014).
Furthermore, the binding constant of the fucose α1→6 specific lectin is not decreased even if a sialic acid is added to the fucose α1→6 sugar chain (sugar chains No. 601 and 602). In addition, the fucose α1→6 specific lectin also strongly binds to the triple-strand (sugar chains No. 407 to 413) and the four-strand (sugar chains No. 418) of the fucose uα1→6 sugar chain.

[3] = subject samples A, 7 healthy persons, pH 7.4
[4] = subject samples A, 9 patients, pH 7.4

Binding constant for sugar chain No. 728 [1]: <1000 M⁻¹
binding to the fucose α1→6 sugar chains (in words) [2]: bind
B1: AAL: Aleuria aurantia lectin, has affinity for fucose α1→6 but is not specific; from J-OIL MILLS, Inc. (protein)
chain: PTEFLYTSKIAAISWAATGGRQQRVYFQDLNGKIREAQRGGDNPWTGGSSQNVIGEAKLFSPLAAVTWKSAQGIQIRVYCVNKDNILSEFVYDGSKWITGQLGSVGVKVGSNSKLAALQWGGSESAPPNIRVYYQKSNGSGSSIHEYVWSGKWTAGASFGSTVPGTGIGATAIGPGRLRIYYQATDNKIREHCWDSNSWYVGGFSASASAGVSIAAISWGSTPNIRVYWQKGREELYEAAYGGSWNTPGQIKDASRPTPSLPDTFIAANSSGNIDISVFFQASGVSLQQWQWISGKGWSIGAVVPTGTPAGW
lectin reaction value B of Healthy 1 (serum fucosylated PSA; serum of Healthy 1, pH in lectin reaction 7.4): 1099.6 U/mL
lectin reaction value of Healthy 2 (serum fucosylated PSA; serum of Healthy 2, pH in lectin reaction 7.4): 854.6 U/mL
lectin reaction value of Healthy 3 (serum fucosylated PSA; serum of Healthy 3, pH in lectin reaction 7.4): 1062.7 U/mL
lectin reaction value of Healthy 4 (serum fucosylated PSA; serum of Healthy 4, pH in lectin reaction 7.4): 115.0 U/mL
lectin reaction value of Healthy 5 (serum fucosylated PSA; serum of Healthy 5, pH in lectin reaction 7.4): 32.3 U/mL
lectin reaction value of Healthy 6 (serum fucosylated PSA; serum of Healthy 6, pH in lectin reaction 7.4): 1193.1 U/mL
lectin reaction value of Healthy 7 (serum fucosylated PSA; serum of Healthy 7, pH in lectin reaction 7.4): 1028.8 U/mL
lectin reaction value of Prostate cancer 1 (serum fucosylated PSA; serum of Prostate cancer 1, GS 4 (2 + 2), pH in lectin reaction 7.4): 831.2 U/mL
lectin reaction value of Prostate cancer 2 (serum fucosylated PSA; serum of Prostate cancer 2, GS 5 (2 + 3), pH in lectin reaction 7.4): 1032.3 U/mL
lectin reaction value of Prostate cancer 3 (serum fucosylated PSA; serum of Prostate cancer 3, GS 6 (3 + 3), pH in lectin reaction 7.4): 1152.7 U/mL
lectin reaction value A of Prostate cancer 4 (serum fucosylated PSA; serum of Prostate cancer 4, GS 6 (3 + 3), pH in lectin reaction 7.4): 926.5 U/mL
lectin reaction value of Prostate cancer 5 (serum fucosylated PSA; serum of Prostate cancer 5, GS 7 (3 + 4), pH in lectin reaction 7.4): 1025.0 U/mL
lectin reaction value of Prostate cancer 6 (serum fucosylated PSA; serum of Prostate cancer 6, GS 7 (3 + 4), pH in lectin reaction 7.4): 961.5 U/mL
lectin reaction value of Prostate cancer 7 (serum fucosylated PSA; serum of Prostate cancer 7, GS 8 (3 + 5), pH in lectin reaction 7.4): 1211.9 U/mL
lectin reaction value of Prostate cancer 8 (serum fucosylated PSA; serum of Prostate cancer 8, GS 8 (4 + 4), pH in lectin reaction 7.4): 1010.0 U/mL
lectin reaction value of Prostate cancer 9 (serum fucosylated PSA; serum of Prostate cancer 9, GS 8 (4 + 4), pH in lectin reaction 7.4): 988.1 U/mL
reaction value, Healthy person group, Average value (serum fucosylated PSA; [3]): 769.4 U/mL
reaction value, Healthy person group, Median value (serum fucosylated PSA; [3]): 1028.8 U/mL
reaction value, Prostate cancer patient group, Average value (serum fucosylated PSA; [4]): 1015.5 U/mL
reaction value, Prostate cancer patient group, Median value (serum fucosylated PSA; [4]): 1010.0 U/mL
reaction value, GS6, Mean value (serum fucosylated PSA; subject samples A, n 2, pH 7.4): 1039.6 U/mL
reaction value, GS6, Median value (serum fucosylated PSA; subject samples A, n 2, pH 7.4): 1039.6 U/mL
reaction value, GS7, Mean value (serum fucosylated PSA; subject samples A, n 2, pH 7.4): 993.3 U/mL
reaction value, GS7, Median value (serum fucosylated PSA; subject samples A, n 2, pH 7.4): 993.3 U/mL
reaction value, Negative (GS5 or less), Mean value (serum fucosylated PSA; subject samples A, n 2, pH 7.4): 931.8 U/mL
reaction value, Negative (GS5 or less), Median value (serum fucosylated PSA; subject samples A, n 2, pH 7.4): 931.8 U/mL
reaction value, GS8 or more, Mean value (serum fucosylated PSA; subject samples A, n 3, pH 7.4): 1070.0 U/mL
reaction value, GS8 or more, Median value (serum fucosylated PSA; subject samples A, n 3, pH 7.4): 1010.0 U/mL
